Experimental data taken from publication PMC12612594, “Nuclear Magnetic Resonance‐based fragment screen of the E3 ligase Fem‐1 homolog B” (Protein Science : A Publication of the Protein Society, 2025).
Values joined by “and” are separate entries in the source; they are usually repeats but may differ in a detail not shown here. Equal entries are not always repeated.

Experiment: thermal shift assay of FEM1B constructs
Assay type: physicochemical
Details: average of three replicates
Protocol: The substrate binding domain of FEM1B (residues 1–356, ~42 kDa molecular weight) was prepared for NMR‐based screening. However, this construct (FEM1B WT) was prone to aggregation and was not suitable for the NMR experiments. […] To reduce the potential for aggregation, we prepared several mutants of FEM1B constructs and evaluated their stability using a thermal shift assay (Table 1).

Row | Molecule | Tm ± SD
1 | FEM1B WT: substrate binding domain of FEM1B (residues 1–356), wild type (protein, UniProt Q9UK73 1-356, looked up, fragment, substrate binding domain) MEGLAGYVYKAASEGKVLTLAALLLNRSESDIRYLLGYVSQQGGQRSTPLIIAARNGHAKVVRLLLEHYRVQTQQTGTVRFDGYVIDGATALWCAAGAGHFEVVKLLVSHGANVNHTTVTNSTPLRAACFDGRLDIVKYLVENNANISIANKYDNTCLMIAAYKGHTDVVRYLLEQRADPNAKAHCGATALHFAAEAGHIDIVKELIKWRAAIVVNGHGMTPLKVAAESCKADVVELLLSHADCDRRSRIEALELLGASFANDRENYDIIKTYHYLYLAMLERFQDGDNILEKEVLPPIHAYGNRTECRNPQELESIRQDRDALHMEGLIVRERILGADNIDVSHPIIYRGAVYAD | 35.6 °C and 35.6 ± 0.5 °C
2 | FEM1B‐7: FEM1B construct, mutations L4E, L18E, L25S, L281E, R321D (protein, UniProt Q9UK73 1-627, looked up, variant L4E L18E L25S L281E R321D) Protein fem-1 homolog B: MEGEAGYVYKAASEGKVETLAALLSNRSESDIRYLLGYVSQQGGQRSTPLIIAARNGHAKVVRLLLEHYRVQTQQTGTVRFDGYVIDGATALWCAAGAGHFEVVKLLVSHGANVNHTTVTNSTPLRAACFDGRLDIVKYLVENNANISIANKYDNTCLMIAAYKGHTDVVRYLLEQRADPNAKAHCGATALHFAAEAGHIDIVKELIKWRAAIVVNGHGMTPLKVAAESCKADVVELLLSHADCDRRSRIEALELLGASFANDRENYDIIKTYHYLYLAMEERFQDGDNILEKEVLPPIHAYGNRTECRNPQELESIRQDDDALHMEGLIVRERILGADNIDVSHPIIYRGAVYADNMEFEQCIKLWLHALHLRQKGNRNTHKDLLRFAQVFSQMIHLNETVKAPDIECVLRCSVLEIEQSMNRVKNISDADVHNAMDNYECNLYTFLYLVCISTKTQCSEEDQCKINKQIYNLIHLDPRTREGFTLLHLAVNSNTPVDDFHTNDVCSFPNALVTKLLLDCGAEVNAVDNEGNSALHIIVQYNRPISDFLTLHSIIISLVEAGAHTDMTNKQNKTPLDKSTTGVSEILLKTQMKMSLKCLAARAVRANDINYQDQIPRTLEEFVGFH | 28.7 ± 1.4 °C
3 | FEM1B‐4: FEM1B construct, mutations L4E, L18E, L281E, R321D (protein, UniProt Q9UK73 1-627, looked up, variant L4E L18E L281E R321D) Protein fem-1 homolog B: MEGEAGYVYKAASEGKVETLAALLLNRSESDIRYLLGYVSQQGGQRSTPLIIAARNGHAKVVRLLLEHYRVQTQQTGTVRFDGYVIDGATALWCAAGAGHFEVVKLLVSHGANVNHTTVTNSTPLRAACFDGRLDIVKYLVENNANISIANKYDNTCLMIAAYKGHTDVVRYLLEQRADPNAKAHCGATALHFAAEAGHIDIVKELIKWRAAIVVNGHGMTPLKVAAESCKADVVELLLSHADCDRRSRIEALELLGASFANDRENYDIIKTYHYLYLAMEERFQDGDNILEKEVLPPIHAYGNRTECRNPQELESIRQDDDALHMEGLIVRERILGADNIDVSHPIIYRGAVYADNMEFEQCIKLWLHALHLRQKGNRNTHKDLLRFAQVFSQMIHLNETVKAPDIECVLRCSVLEIEQSMNRVKNISDADVHNAMDNYECNLYTFLYLVCISTKTQCSEEDQCKINKQIYNLIHLDPRTREGFTLLHLAVNSNTPVDDFHTNDVCSFPNALVTKLLLDCGAEVNAVDNEGNSALHIIVQYNRPISDFLTLHSIIISLVEAGAHTDMTNKQNKTPLDKSTTGVSEILLKTQMKMSLKCLAARAVRANDINYQDQIPRTLEEFVGFH | 35.0 ± 0.5 °C
4 | FEM1B‐8: FEM1B construct, mutations L4E, A21E, L25S, I270N, L281E (protein, UniProt Q9UK73 1-627, looked up, variant L4E A21E L25S I270N L281E) Protein fem-1 homolog B: MEGEAGYVYKAASEGKVLTLEALLSNRSESDIRYLLGYVSQQGGQRSTPLIIAARNGHAKVVRLLLEHYRVQTQQTGTVRFDGYVIDGATALWCAAGAGHFEVVKLLVSHGANVNHTTVTNSTPLRAACFDGRLDIVKYLVENNANISIANKYDNTCLMIAAYKGHTDVVRYLLEQRADPNAKAHCGATALHFAAEAGHIDIVKELIKWRAAIVVNGHGMTPLKVAAESCKADVVELLLSHADCDRRSRIEALELLGASFANDRENYDINKTYHYLYLAMEERFQDGDNILEKEVLPPIHAYGNRTECRNPQELESIRQDRDALHMEGLIVRERILGADNIDVSHPIIYRGAVYADNMEFEQCIKLWLHALHLRQKGNRNTHKDLLRFAQVFSQMIHLNETVKAPDIECVLRCSVLEIEQSMNRVKNISDADVHNAMDNYECNLYTFLYLVCISTKTQCSEEDQCKINKQIYNLIHLDPRTREGFTLLHLAVNSNTPVDDFHTNDVCSFPNALVTKLLLDCGAEVNAVDNEGNSALHIIVQYNRPISDFLTLHSIIISLVEAGAHTDMTNKQNKTPLDKSTTGVSEILLKTQMKMSLKCLAARAVRANDINYQDQIPRTLEEFVGFH | 34.5 ± 0.2 °C
5 | FEM1B‐9: FEM1B construct, mutations L4E, A21E, L25S, L281E, R321D (protein, UniProt Q9UK73 1-627, looked up, variant L4E A21E L25S L281E R321D) Protein fem-1 homolog B: MEGEAGYVYKAASEGKVLTLEALLSNRSESDIRYLLGYVSQQGGQRSTPLIIAARNGHAKVVRLLLEHYRVQTQQTGTVRFDGYVIDGATALWCAAGAGHFEVVKLLVSHGANVNHTTVTNSTPLRAACFDGRLDIVKYLVENNANISIANKYDNTCLMIAAYKGHTDVVRYLLEQRADPNAKAHCGATALHFAAEAGHIDIVKELIKWRAAIVVNGHGMTPLKVAAESCKADVVELLLSHADCDRRSRIEALELLGASFANDRENYDIIKTYHYLYLAMEERFQDGDNILEKEVLPPIHAYGNRTECRNPQELESIRQDDDALHMEGLIVRERILGADNIDVSHPIIYRGAVYADNMEFEQCIKLWLHALHLRQKGNRNTHKDLLRFAQVFSQMIHLNETVKAPDIECVLRCSVLEIEQSMNRVKNISDADVHNAMDNYECNLYTFLYLVCISTKTQCSEEDQCKINKQIYNLIHLDPRTREGFTLLHLAVNSNTPVDDFHTNDVCSFPNALVTKLLLDCGAEVNAVDNEGNSALHIIVQYNRPISDFLTLHSIIISLVEAGAHTDMTNKQNKTPLDKSTTGVSEILLKTQMKMSLKCLAARAVRANDINYQDQIPRTLEEFVGFH | 28.5 ± 1.3 °C
6 | FEM1B‐10: FEM1B construct, mutations L4E, L18E, L24S, I270N, L281E (protein, UniProt Q9UK73 1-627, looked up, variant L4E L18E L24S I270N L281E) Protein fem-1 homolog B: MEGEAGYVYKAASEGKVETLAALSLNRSESDIRYLLGYVSQQGGQRSTPLIIAARNGHAKVVRLLLEHYRVQTQQTGTVRFDGYVIDGATALWCAAGAGHFEVVKLLVSHGANVNHTTVTNSTPLRAACFDGRLDIVKYLVENNANISIANKYDNTCLMIAAYKGHTDVVRYLLEQRADPNAKAHCGATALHFAAEAGHIDIVKELIKWRAAIVVNGHGMTPLKVAAESCKADVVELLLSHADCDRRSRIEALELLGASFANDRENYDINKTYHYLYLAMEERFQDGDNILEKEVLPPIHAYGNRTECRNPQELESIRQDRDALHMEGLIVRERILGADNIDVSHPIIYRGAVYADNMEFEQCIKLWLHALHLRQKGNRNTHKDLLRFAQVFSQMIHLNETVKAPDIECVLRCSVLEIEQSMNRVKNISDADVHNAMDNYECNLYTFLYLVCISTKTQCSEEDQCKINKQIYNLIHLDPRTREGFTLLHLAVNSNTPVDDFHTNDVCSFPNALVTKLLLDCGAEVNAVDNEGNSALHIIVQYNRPISDFLTLHSIIISLVEAGAHTDMTNKQNKTPLDKSTTGVSEILLKTQMKMSLKCLAARAVRANDINYQDQIPRTLEEFVGFH | 36.3 ± 0.1 °C
7 | FEM1B‐5: FEM1B construct, mutations L4E, A21E, L18E, L25S (protein, UniProt Q9UK73 1-627, looked up, variant L4E A21E L18E L25S) Protein fem-1 homolog B: MEGEAGYVYKAASEGKVETLEALLSNRSESDIRYLLGYVSQQGGQRSTPLIIAARNGHAKVVRLLLEHYRVQTQQTGTVRFDGYVIDGATALWCAAGAGHFEVVKLLVSHGANVNHTTVTNSTPLRAACFDGRLDIVKYLVENNANISIANKYDNTCLMIAAYKGHTDVVRYLLEQRADPNAKAHCGATALHFAAEAGHIDIVKELIKWRAAIVVNGHGMTPLKVAAESCKADVVELLLSHADCDRRSRIEALELLGASFANDRENYDIIKTYHYLYLAMLERFQDGDNILEKEVLPPIHAYGNRTECRNPQELESIRQDRDALHMEGLIVRERILGADNIDVSHPIIYRGAVYADNMEFEQCIKLWLHALHLRQKGNRNTHKDLLRFAQVFSQMIHLNETVKAPDIECVLRCSVLEIEQSMNRVKNISDADVHNAMDNYECNLYTFLYLVCISTKTQCSEEDQCKINKQIYNLIHLDPRTREGFTLLHLAVNSNTPVDDFHTNDVCSFPNALVTKLLLDCGAEVNAVDNEGNSALHIIVQYNRPISDFLTLHSIIISLVEAGAHTDMTNKQNKTPLDKSTTGVSEILLKTQMKMSLKCLAARAVRANDINYQDQIPRTLEEFVGFH | 38.8 ± 0.3 °C
8 | FEM1B‐3: FEM1B construct, mutations L4E, L18E, L281E (protein, UniProt Q9UK73 1-627, looked up, variant L4E L18E L281E) Protein fem-1 homolog B: MEGEAGYVYKAASEGKVETLAALLLNRSESDIRYLLGYVSQQGGQRSTPLIIAARNGHAKVVRLLLEHYRVQTQQTGTVRFDGYVIDGATALWCAAGAGHFEVVKLLVSHGANVNHTTVTNSTPLRAACFDGRLDIVKYLVENNANISIANKYDNTCLMIAAYKGHTDVVRYLLEQRADPNAKAHCGATALHFAAEAGHIDIVKELIKWRAAIVVNGHGMTPLKVAAESCKADVVELLLSHADCDRRSRIEALELLGASFANDRENYDIIKTYHYLYLAMEERFQDGDNILEKEVLPPIHAYGNRTECRNPQELESIRQDRDALHMEGLIVRERILGADNIDVSHPIIYRGAVYADNMEFEQCIKLWLHALHLRQKGNRNTHKDLLRFAQVFSQMIHLNETVKAPDIECVLRCSVLEIEQSMNRVKNISDADVHNAMDNYECNLYTFLYLVCISTKTQCSEEDQCKINKQIYNLIHLDPRTREGFTLLHLAVNSNTPVDDFHTNDVCSFPNALVTKLLLDCGAEVNAVDNEGNSALHIIVQYNRPISDFLTLHSIIISLVEAGAHTDMTNKQNKTPLDKSTTGVSEILLKTQMKMSLKCLAARAVRANDINYQDQIPRTLEEFVGFH | 35.0 ± 0.5 °C
